One block for each binder: values may come before it.
Assays:
[1] = biological target: T1, neddylated CUL2 (endogenous) (human (endogenous in 293T), UniProt Q13617;Q15843, NEDD8-modified | linked to the cullin); assay: affinity purification with mass spectrometry; IPs with biotinylated N8C_Fab3b on streptavidin beads from lysates of human cells (293T, K562, panel of ten lines), N8-block; cells treated with DMSO, MLN4924, CSN5i-3, Indisulam, MZ1, ferric ammonium citrate or TNF (with MG132 and CB-5083 before stimuli); DIA MS; conditions: one partner purified
T1 construct: CUL2, human; NEDD8, human, the conjugated form; also called NEDD8-linked CUL2; source: endogenous, 293T lysate
T1 sequence (Q13617 whole entry, chain 1 of 2): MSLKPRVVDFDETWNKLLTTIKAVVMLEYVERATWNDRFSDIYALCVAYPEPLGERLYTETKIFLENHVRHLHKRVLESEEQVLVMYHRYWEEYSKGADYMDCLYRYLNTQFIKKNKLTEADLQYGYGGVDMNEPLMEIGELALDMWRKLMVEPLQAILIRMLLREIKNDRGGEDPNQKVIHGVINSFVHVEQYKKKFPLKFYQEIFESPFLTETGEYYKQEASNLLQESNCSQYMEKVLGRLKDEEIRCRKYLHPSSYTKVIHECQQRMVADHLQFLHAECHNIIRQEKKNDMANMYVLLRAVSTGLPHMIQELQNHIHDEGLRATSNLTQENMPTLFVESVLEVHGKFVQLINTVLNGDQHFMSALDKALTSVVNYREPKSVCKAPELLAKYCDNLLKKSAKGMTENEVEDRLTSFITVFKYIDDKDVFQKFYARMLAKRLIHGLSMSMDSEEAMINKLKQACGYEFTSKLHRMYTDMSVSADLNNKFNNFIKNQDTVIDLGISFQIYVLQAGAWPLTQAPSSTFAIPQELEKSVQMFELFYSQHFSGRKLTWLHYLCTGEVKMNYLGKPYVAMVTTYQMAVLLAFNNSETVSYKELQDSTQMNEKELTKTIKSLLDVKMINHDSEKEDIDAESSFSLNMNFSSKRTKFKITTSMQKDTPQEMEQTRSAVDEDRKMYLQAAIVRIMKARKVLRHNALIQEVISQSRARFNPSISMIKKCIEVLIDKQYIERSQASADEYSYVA
T1 sequence (Q15843 1-76, chain 2 of 2): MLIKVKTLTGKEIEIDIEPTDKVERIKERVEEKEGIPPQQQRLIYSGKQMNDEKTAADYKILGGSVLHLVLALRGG

[2] = biological target: T2, neddylated CUL3 (endogenous) (human (endogenous in K562, 293T), UniProt Q13618;Q15843, NEDD8-modified | linked to the cullin); assay: co-IP; biotinylated Fab on streptavidin magnetic beads, K562 lysates (cells treated with DMSO, MLN4924 or CSN5i-3; N8-block), 45 min at 4 °C, immunoblotting; conditions: one partner purified
T2 construct: CUL3, human; NEDD8, human, the conjugated form; also called NEDD8-linked CUL3; source: endogenous, K562 lysate; endogenous, 293T lysate
T2 sequence (Q13618 whole entry, chain 1 of 2): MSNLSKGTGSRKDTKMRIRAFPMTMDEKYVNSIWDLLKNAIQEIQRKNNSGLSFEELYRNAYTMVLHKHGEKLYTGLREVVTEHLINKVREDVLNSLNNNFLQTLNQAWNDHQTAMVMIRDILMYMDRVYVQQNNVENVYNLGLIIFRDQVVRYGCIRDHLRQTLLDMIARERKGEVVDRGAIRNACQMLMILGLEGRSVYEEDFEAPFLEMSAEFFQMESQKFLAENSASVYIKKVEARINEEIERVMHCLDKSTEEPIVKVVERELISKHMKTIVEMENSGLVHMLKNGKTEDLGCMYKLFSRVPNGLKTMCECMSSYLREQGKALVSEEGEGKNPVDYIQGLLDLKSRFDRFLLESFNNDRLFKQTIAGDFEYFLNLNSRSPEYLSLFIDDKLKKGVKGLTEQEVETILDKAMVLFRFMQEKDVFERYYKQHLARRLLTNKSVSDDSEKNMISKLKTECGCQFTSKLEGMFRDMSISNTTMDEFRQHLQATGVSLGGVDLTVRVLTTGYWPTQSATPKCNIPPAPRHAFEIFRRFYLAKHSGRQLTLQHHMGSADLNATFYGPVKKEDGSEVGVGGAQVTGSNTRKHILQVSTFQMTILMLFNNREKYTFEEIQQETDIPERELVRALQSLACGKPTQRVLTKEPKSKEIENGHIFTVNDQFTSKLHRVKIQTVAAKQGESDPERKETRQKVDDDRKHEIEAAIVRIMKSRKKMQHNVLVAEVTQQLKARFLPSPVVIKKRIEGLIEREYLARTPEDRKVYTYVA
T2 sequence (Q15843 1-76, chain 2 of 2): as the sequence (Q15843 1-76, chain 2 of 2) above

[3] = biological target: T3, neddylated CUL1 C-terminal region bound to RBX1 (Homo sapiens, UniProt Q13616;P62877;Q15843, L421E | V451E | V452K | Y455K, NEDD8 linked to a specific site in the WHB subdomain | C-terminus linked to the cullin (isopeptide)); assay: ELISA; proteins (2 µg/ml) coated on 384-well MaxiSorp plates overnight at 4 °C; Fab titrated (Fig. 1c at 50 nM Fab); detected with anti-M13-HRP (phage) or anti-Kappa-HRP (protein); EC50 by nonlinear regression; the results call the Fabs phage-displayed, the methods give EC50 for purified Fab proteins; conditions: both partners purified
T3 construct: CUL1, human, C-terminal region residues 411-776 with solubilizing substitutions; RBX1, human; NEDD8, human, the conjugated form; also called neddylated CUL1–RBX1; source: neddylated in vitro; not shown: MBP, N-terminal, cleaved; GST, N-terminal, cleaved; copies: + +
T3 sequence (Q13616 411-776 L421E/V451E/V452K/Y455K, chain 1 of 3): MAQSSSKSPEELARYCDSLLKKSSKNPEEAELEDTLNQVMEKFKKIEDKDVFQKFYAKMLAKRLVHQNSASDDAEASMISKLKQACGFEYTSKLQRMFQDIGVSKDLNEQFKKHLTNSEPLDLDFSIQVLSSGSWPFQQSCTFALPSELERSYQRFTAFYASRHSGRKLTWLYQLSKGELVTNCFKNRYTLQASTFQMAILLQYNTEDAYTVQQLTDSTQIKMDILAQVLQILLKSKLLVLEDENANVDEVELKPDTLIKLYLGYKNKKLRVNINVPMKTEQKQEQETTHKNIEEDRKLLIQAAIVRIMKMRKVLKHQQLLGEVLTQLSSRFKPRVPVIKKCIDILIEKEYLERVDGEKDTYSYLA
T3 sequence (P62877 whole entry, chain 2 of 3, the tested form may be a part): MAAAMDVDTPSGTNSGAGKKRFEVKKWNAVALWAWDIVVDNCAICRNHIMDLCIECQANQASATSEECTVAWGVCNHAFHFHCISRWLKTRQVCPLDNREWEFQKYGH
T3 sequence (Q15843 1-76, chain 3 of 3): as the sequence (Q15843 1-76, chain 2 of 2) above

[4] = biological target: T4, purified recombinant CUL3 modified by NEDD8 (band on the immunoblot) (Homo sapiens, UniProt Q13618;Q15843, NEDD8 linked to a specific site in the WHB subdomain | C-terminus linked to the cullin (isopeptide)); assay: far-Western, overlay or dot blot; 200 ng neddylated or unneddylated recombinant CUL1-5 after SDS-PAGE on PVDF; 2 µg/ml biotinylated Fab as primary binder, Streptavidin-HRP; conditions: both partners purified
T4 construct: CUL3, human; NEDD8, human, the conjugated form; Resolved by SDS-PAGE, so RBX1 is not in the band; also called neddylated CUL3–RBX1; source: recombinant, purified, neddylated in vitro; not shown: GST, N-terminal, cleaved
T4 sequence (Q13618 whole entry, chain 1 of 2): as the sequence (Q13618 whole entry, chain 1 of 2) above
T4 sequence (Q15843 1-76, chain 2 of 2): as the sequence (Q15843 1-76, chain 2 of 2) above

binding result [1]: binds
binding result [2]: binds
B1: N8C_Fab3b, biotinylated (Fab, V domains shown)
VH: EVQLVESGGGLVQPGGSLRLSCAASGFNFSSSSIHWVRQAPGKGLEWVASISSSYGYTYYADSVKGRFTISADTSKNTAYLQMNSLRAEDTAVYYCARDPFGWAAHGVGLDYWGQGTLVTVSS
VL: DIQMTQSPSSLSASVGDRVTITCRASQSVSSAVAWYQQKPGKAPKLLIYSASSLYSGVPSRFSGSRSGTDFTLTISSLQPEDFATYYCQQSSYSLITFGQGTKVEIK
notes: as the heavy chain of m5; as the light chain of m5; GS linker between the heavy chain and the AviTag-His6 tag; Held on streptavidin beads in the IPs; source: E. coli Rosetta (DE3), purified, biotinylated in vitro with BirA; not shown: AviTag, C-terminal, kept

fold higher EC50 than N8C_Fab1b [3]: ~3 fold
B2: N8C_Fab4a (Fab, V domains shown)
VH: EVQLVESGGGLVQPGGSLRLSCAASGFNLSYYSMHWVRQAPGKGLEWVASISPYYSYTYYADSVKGRFTISADTSKNTAYLQMNSLRAEDTAVYYCARSHWASYYAGAFDYWGQGTLVTVSS
VL: DIQMTQSPSSLSASVGDRVTITCRASQSVSSAVAWYQQKPGKAPKLLIYSASSLYSGVPSRFSGSRSGTDFTLTISSLQPEDFATYYCQQGYAFWHPITFGQGTKVEIK

binding result [4]: binds
binding result [2]: binds
B3: N8C_Fab4a, biotinylated (Fab, V domains shown)
VH: B2 VH
VL: B2 VL
notes: as the heavy chain of m6; as the light chain of m6; GS linker between the heavy chain and the AviTag-His6 tag; source: E. coli Rosetta (DE3), purified, biotinylated in vitro with BirA; not shown: AviTag, C-terminal, kept
